Source: patent US20180155451A1 (published 2018)

T1: FcγRIIa R (extracellular domain with a His tag at the C terminus) (human, UniProt P12318 34-217)
T1 construct: extracellular domain; expressed in FreeStyle293 cells; also called FcgRIIa R; FcγRIIa type R; not shown: His tag at the C terminus
T1 sequence (looked up): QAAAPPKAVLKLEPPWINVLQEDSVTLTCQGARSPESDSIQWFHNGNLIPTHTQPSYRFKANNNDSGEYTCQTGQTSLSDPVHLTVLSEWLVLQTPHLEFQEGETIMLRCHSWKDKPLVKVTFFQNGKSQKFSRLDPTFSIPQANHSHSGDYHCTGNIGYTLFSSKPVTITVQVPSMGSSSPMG

B1: GpH7-B3 variant P331_20W/GpL16-k0 (antibody, human IgG1, kappa)
heavy: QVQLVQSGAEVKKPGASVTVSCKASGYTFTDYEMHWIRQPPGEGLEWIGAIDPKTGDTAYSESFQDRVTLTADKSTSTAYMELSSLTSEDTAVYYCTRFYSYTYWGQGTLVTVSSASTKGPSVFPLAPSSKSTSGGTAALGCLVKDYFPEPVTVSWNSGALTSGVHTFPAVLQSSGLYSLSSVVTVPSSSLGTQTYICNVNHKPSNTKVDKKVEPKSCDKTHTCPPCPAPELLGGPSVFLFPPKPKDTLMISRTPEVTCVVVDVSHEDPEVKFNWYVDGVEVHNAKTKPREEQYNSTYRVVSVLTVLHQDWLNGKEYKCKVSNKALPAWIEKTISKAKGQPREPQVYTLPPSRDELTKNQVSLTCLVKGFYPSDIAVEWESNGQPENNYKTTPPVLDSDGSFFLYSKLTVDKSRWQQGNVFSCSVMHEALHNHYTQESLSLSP
light: DIVMTQSPLSLPVTPGEPASISCQASESLVHSNRNTYLHWYLQKPGQSPQLLIYKVSNRFSGVPDRFSGSGSGTDFTLKISRVEAEDVGVYYCSQNTHVPPTFGQGTKVEIERTVAAPSVFIFPPSDEQLKSGTASVVCLLNNFYPREAKVQWKVDNALQSGNSQESVTEQDSKDSTYSLSSTLTLSKADYEKHKVYACEVTHQGLSSPVTKSFNRGEC
notes: homodimerized; mutation in both H chains; also called Ho Ab
B2: GpH7-B3 variant S239_10E/GpL16-k0 (antibody, human IgG1, kappa)
heavy: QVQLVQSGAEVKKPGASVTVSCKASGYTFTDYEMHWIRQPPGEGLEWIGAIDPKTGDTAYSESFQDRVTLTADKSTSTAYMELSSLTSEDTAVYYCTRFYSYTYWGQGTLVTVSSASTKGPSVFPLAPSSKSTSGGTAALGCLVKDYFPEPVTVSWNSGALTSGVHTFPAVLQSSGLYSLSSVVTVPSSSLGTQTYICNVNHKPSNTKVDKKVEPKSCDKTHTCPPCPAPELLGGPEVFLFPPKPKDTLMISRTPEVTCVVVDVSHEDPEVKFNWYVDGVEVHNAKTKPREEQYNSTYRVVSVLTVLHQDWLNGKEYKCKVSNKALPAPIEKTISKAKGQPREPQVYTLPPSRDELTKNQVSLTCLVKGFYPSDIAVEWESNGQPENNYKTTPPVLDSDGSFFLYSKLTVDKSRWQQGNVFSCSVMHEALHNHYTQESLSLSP
light: DIVMTQSPLSLPVTPGEPASISCQASESLVHSNRNTYLHWYLQKPGQSPQLLIYKVSNRFSGVPDRFSGSGSGTDFTLKISRVEAEDVGVYYCSQNTHVPPTFGQGTKVEIERTVAAPSVFIFPPSDEQLKSGTASVVCLLNNFYPREAKVQWKVDNALQSGNSQESVTEQDSKDSTYSLSSTLTLSKADYEKHKVYACEVTHQGLSSPVTKSFNRGEC
notes: as for B1
B3: GpH7-B3 variant S239_18N/GpL16-k0 (antibody, human IgG1, kappa)
heavy: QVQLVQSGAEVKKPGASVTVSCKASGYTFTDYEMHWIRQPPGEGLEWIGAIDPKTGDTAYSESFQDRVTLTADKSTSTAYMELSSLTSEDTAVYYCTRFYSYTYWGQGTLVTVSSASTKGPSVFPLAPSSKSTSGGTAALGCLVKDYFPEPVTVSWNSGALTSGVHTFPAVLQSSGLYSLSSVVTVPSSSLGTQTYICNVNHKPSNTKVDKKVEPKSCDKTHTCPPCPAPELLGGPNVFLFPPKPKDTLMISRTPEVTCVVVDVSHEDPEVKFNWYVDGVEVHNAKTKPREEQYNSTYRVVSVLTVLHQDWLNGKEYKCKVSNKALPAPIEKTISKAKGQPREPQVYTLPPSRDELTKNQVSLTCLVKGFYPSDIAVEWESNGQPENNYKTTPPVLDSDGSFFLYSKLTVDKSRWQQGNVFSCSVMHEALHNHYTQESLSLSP
light: DIVMTQSPLSLPVTPGEPASISCQASESLVHSNRNTYLHWYLQKPGQSPQLLIYKVSNRFSGVPDRFSGSGSGTDFTLKISRVEAEDVGVYYCSQNTHVPPTFGQGTKVEIERTVAAPSVFIFPPSDEQLKSGTASVVCLLNNFYPREAKVQWKVDNALQSGNSQESVTEQDSKDSTYSLSSTLTLSKADYEKHKVYACEVTHQGLSSPVTKSFNRGEC
notes: as for B1
B4: GpH7-B3 variant S267_03V/GpL16-k0 (antibody, human IgG1, kappa)
heavy: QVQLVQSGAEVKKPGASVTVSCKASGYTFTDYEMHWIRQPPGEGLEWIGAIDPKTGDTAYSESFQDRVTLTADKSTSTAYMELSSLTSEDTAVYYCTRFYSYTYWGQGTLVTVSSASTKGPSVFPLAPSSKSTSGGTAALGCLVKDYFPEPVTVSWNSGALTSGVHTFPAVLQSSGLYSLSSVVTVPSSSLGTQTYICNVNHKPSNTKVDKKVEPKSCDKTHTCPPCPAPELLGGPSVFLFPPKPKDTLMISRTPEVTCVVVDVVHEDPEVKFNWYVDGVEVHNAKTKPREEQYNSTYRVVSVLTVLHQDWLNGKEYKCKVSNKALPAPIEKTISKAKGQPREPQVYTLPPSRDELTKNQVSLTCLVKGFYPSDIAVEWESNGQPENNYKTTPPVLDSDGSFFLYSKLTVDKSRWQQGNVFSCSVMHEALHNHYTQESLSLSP
light: DIVMTQSPLSLPVTPGEPASISCQASESLVHSNRNTYLHWYLQKPGQSPQLLIYKVSNRFSGVPDRFSGSGSGTDFTLKISRVEAEDVGVYYCSQNTHVPPTFGQGTKVEIERTVAAPSVFIFPPSDEQLKSGTASVVCLLNNFYPREAKVQWKVDNALQSGNSQESVTEQDSKDSTYSLSSTLTLSKADYEKHKVYACEVTHQGLSSPVTKSFNRGEC
notes: as for B1
B5: GpH7-B3 variant S239_08L/GpL16-k0 (antibody, human IgG1, kappa)
heavy: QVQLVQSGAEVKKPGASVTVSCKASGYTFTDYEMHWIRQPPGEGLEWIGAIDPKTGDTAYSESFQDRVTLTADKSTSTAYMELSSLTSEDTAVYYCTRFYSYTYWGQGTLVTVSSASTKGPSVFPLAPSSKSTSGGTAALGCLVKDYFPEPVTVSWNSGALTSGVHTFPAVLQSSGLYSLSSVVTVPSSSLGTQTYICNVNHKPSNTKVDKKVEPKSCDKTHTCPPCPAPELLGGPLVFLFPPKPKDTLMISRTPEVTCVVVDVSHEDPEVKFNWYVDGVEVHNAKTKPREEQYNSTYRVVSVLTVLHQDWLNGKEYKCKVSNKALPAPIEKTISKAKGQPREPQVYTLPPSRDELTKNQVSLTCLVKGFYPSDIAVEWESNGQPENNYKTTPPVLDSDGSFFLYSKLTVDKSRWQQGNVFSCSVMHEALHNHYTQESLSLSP
light: DIVMTQSPLSLPVTPGEPASISCQASESLVHSNRNTYLHWYLQKPGQSPQLLIYKVSNRFSGVPDRFSGSGSGTDFTLKISRVEAEDVGVYYCSQNTHVPPTFGQGTKVEIERTVAAPSVFIFPPSDEQLKSGTASVVCLLNNFYPREAKVQWKVDNALQSGNSQESVTEQDSKDSTYSLSSTLTLSKADYEKHKVYACEVTHQGLSSPVTKSFNRGEC
notes: as for B1
B6: GpH7-B3 variant S267_06M/GpL16-k0 (antibody, human IgG1, kappa)
heavy: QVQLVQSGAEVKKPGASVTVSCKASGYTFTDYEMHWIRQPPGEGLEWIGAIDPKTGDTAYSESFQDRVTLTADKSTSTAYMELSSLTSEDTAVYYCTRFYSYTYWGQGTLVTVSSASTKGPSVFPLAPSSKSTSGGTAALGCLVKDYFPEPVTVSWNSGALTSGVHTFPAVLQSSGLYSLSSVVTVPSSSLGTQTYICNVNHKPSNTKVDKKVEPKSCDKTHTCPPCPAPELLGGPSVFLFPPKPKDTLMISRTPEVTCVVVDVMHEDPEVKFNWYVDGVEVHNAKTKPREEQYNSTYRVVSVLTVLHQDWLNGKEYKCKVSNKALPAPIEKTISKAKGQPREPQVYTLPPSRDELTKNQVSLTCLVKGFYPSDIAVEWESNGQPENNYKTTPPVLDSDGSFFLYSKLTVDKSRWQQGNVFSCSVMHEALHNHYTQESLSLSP
light: DIVMTQSPLSLPVTPGEPASISCQASESLVHSNRNTYLHWYLQKPGQSPQLLIYKVSNRFSGVPDRFSGSGSGTDFTLKISRVEAEDVGVYYCSQNTHVPPTFGQGTKVEIERTVAAPSVFIFPPSDEQLKSGTASVVCLLNNFYPREAKVQWKVDNALQSGNSQESVTEQDSKDSTYSLSSTLTLSKADYEKHKVYACEVTHQGLSSPVTKSFNRGEC
notes: as for B1
B7: GpH7-B3 variant S298_08L/GpL16-k0 (antibody, human IgG1, kappa)
heavy: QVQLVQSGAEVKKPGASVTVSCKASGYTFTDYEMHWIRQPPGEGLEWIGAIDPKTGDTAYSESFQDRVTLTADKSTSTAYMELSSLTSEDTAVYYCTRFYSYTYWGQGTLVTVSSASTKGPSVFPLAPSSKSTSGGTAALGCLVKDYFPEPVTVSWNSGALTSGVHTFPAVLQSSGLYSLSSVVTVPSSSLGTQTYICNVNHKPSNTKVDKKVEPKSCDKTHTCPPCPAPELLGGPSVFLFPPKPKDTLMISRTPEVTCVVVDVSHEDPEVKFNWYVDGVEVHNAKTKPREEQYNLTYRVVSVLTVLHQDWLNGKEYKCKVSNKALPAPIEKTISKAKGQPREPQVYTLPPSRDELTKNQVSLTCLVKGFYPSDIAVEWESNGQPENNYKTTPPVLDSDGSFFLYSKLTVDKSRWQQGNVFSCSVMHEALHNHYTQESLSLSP
light: DIVMTQSPLSLPVTPGEPASISCQASESLVHSNRNTYLHWYLQKPGQSPQLLIYKVSNRFSGVPDRFSGSGSGTDFTLKISRVEAEDVGVYYCSQNTHVPPTFGQGTKVEIERTVAAPSVFIFPPSDEQLKSGTASVVCLLNNFYPREAKVQWKVDNALQSGNSQESVTEQDSKDSTYSLSSTLTLSKADYEKHKVYACEVTHQGLSSPVTKSFNRGEC
notes: as for B1
B8: GpH7-B3 variant S267_19Q/GpL16-k0 (antibody, human IgG1, kappa)
heavy: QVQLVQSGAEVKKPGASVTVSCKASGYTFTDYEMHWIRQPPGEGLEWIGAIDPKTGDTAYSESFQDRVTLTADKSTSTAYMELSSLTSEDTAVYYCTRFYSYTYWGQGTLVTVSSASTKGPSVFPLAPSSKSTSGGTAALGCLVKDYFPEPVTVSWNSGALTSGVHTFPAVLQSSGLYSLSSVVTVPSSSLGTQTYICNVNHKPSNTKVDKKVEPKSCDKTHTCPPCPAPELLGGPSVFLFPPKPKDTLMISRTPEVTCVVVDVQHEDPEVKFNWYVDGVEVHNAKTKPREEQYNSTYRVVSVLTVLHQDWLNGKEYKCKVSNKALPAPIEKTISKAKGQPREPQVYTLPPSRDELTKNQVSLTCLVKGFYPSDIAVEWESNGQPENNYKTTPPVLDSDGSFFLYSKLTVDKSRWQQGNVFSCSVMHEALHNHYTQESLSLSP
light: DIVMTQSPLSLPVTPGEPASISCQASESLVHSNRNTYLHWYLQKPGQSPQLLIYKVSNRFSGVPDRFSGSGSGTDFTLKISRVEAEDVGVYYCSQNTHVPPTFGQGTKVEIERTVAAPSVFIFPPSDEQLKSGTASVVCLLNNFYPREAKVQWKVDNALQSGNSQESVTEQDSKDSTYSLSSTLTLSKADYEKHKVYACEVTHQGLSSPVTKSFNRGEC
notes: as for B1
B9: GpH7-B3 variant S267_09D/GpL16-k0 (antibody, human IgG1, kappa)
heavy: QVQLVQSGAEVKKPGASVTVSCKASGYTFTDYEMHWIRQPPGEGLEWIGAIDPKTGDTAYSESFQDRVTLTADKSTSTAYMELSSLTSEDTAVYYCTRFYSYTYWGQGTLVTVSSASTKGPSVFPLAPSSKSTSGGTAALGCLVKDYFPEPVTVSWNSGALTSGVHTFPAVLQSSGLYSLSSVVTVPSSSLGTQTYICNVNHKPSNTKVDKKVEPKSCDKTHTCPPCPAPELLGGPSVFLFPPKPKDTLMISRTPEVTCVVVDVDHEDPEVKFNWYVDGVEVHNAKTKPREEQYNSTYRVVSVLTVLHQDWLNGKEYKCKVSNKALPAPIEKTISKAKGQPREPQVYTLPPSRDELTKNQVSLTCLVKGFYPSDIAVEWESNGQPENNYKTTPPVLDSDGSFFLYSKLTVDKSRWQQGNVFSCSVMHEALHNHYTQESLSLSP
light: DIVMTQSPLSLPVTPGEPASISCQASESLVHSNRNTYLHWYLQKPGQSPQLLIYKVSNRFSGVPDRFSGSGSGTDFTLKISRVEAEDVGVYYCSQNTHVPPTFGQGTKVEIERTVAAPSVFIFPPSDEQLKSGTASVVCLLNNFYPREAKVQWKVDNALQSGNSQESVTEQDSKDSTYSLSSTLTLSKADYEKHKVYACEVTHQGLSSPVTKSFNRGEC
notes: as for B1

The binders below were run against T1, FcγRIIa R (extracellular domain with a …) (assay: SPR Biacore, relative binding).

Going from B1 to B2, the Ho/Con_2aR rises from 102 % of GpH7-B3/GpL16-k0 (=100) to 122 % of GpH7-B3/GpL16-k0 (=100).

Compared with B3, B4 is higher in Ho/Con_2aR: 103 % of GpH7-B3/GpL16-k0 (=100) for the first, 115 % of GpH7-B3/GpL16-k0 (=100) for the second.

First: B5
Second: B6
The Ho/Con_2aR of the first is higher: 106 % of GpH7-B3/GpL16-k0 (=100) for the first, 102 % of GpH7-B3/GpL16-k0 (=100) for the second.

First: B7
Second: B8
The Ho/Con_2aR of the first is lower: 101 % of GpH7-B3/GpL16-k0 (=100) for the first, 110 % of GpH7-B3/GpL16-k0 (=100) for the second.

For B9, the Ho/Con_2aR was 167 % of GpH7-B3/GpL16-k0 (=100).
